Substitutions are numbered along the chain they refer to. Values belong to the binder of their own block, whether it stands above or below them.
How the values were obtained:
[1] = molecular target: T1, human CLDN18.1 on cells (CHO-hCLDN18.1) (human, UniProt P56856 1-261); assay: flow cytometry (FACS) on CHO-hCLDN18.1 cells
T1 construct: whole, on cells; also called human Claudin18.1
Method: (§1) The binding of each of the above 9 antibodies to the CHO-S cell lines stably transfected with human CLDN18.2 and human CLDN18.1 (i.e., CHO-hCLDN18.2 and CHO-hCLDN18.1 prepared as described in the Examples) obtained in Example 1 was determined by flow cytometry (FACS). Reference was made to Example 2 for the experimental methods. The experimental data were analyzed using GraphPad Prism software, and FIGS. 1 and 2 were obtained.

[2] = molecular target: T2, human Claudin18.2 protein (P50251802, GenScript) (human, UniProt P56856-2 1-261, limits assumed); assay: BLI (Fortebio Octet Red96), AHC sensor, antibody and human Claudin18.2 protein (GenScript)
T2 construct: also called human CLDN18.2
Method: The equilibrium dissociation constant (KD) for binding of the antibodies of the present invention to human CLDN18.2 was determined by bio-layer interferometry (BLI). A BLI affinity assay was conducted according to the existing method (Estep, P et al., High throughput solution based measurement of antibody-antigen affinity and epitope binding. MAbs, 2013.5(2): p. 270-8). The AHC (18-5060, Fortebio) sensor was soaked in SD buffer (lx PBS, BSA 0.1%, Tween-20 0.05%). 100 μL of SD buffer, each antibody and human Claudin18.2 protein (P50251802, GenScript) were added to a 96-well black polystyrene half-area microplate (Greiner, 675076), respectively. The detection was performed using Fortebio Octet Red96, and the KD values were analyzed using Fortebio Octet analysis software.

[3] = molecular target: T3, human CLDN18.2 on cells (CHO-hCLDN18.2, HEK293-hCLDN18.2, KATO III-hCLDN18.2, DAN-G-hCLDN18.2, NUGC-4) (human, UniProt P56856-2 1-261); assay: flow cytometry (FACS) on CHO-hCLDN18.2 cells, MFI against Log[Conc.(nM)]; EC50 from the table under the plot
T3 construct: whole, on cells; NUGC-4 is used untransfected; also called human Claudin18.2
Method: as §1

[4] = molecular target: T3, human CLDN18.2 on cells (CHO-hCLDN18.2, …); assay: as above; remark: listed apart in the source
Method: as §1

[5] = molecular target: T3, human CLDN18.2 on cells (CHO-hCLDN18.2, …); assay: as above; remark: listed apart in the source
Method: as §1

[6] = molecular target: T3, human CLDN18.2 on cells (CHO-hCLDN18.2, …); assay: flow cytometry (FACS) on DAN-G-hCLDN18.2 cells, MFI against Log[Conc (nM)]; EC50 from the table under the plot
Method: (§2) Referring to Example 4, the binding of the two antibodies to each of the gastric cancer cell line NUGC-4, the gastric cancer cell line KATO III-hCLDN18.2 and the pancreatic cancer cell line DAN-G-hCLDN18.2 was determined by FACS.

[7] = molecular target: T2, human Claudin18.2 protein (P50251802, …); assay: SPR (Biacore T200), human Claudin18.2 amine-coupled to the chip, antibody 0-100 nM in the mobile phase, 1:1 model
Method: According to the manufacturer's instructions, human Claudin18.2 (GenScrip, P50251802) was coupled to the surface of a CMS chip (GE Healthcare, 29-1496-03) using the amino coupling kit (GE Healthcare, BR-1006-33), and the remaining activation sites were blocked by injection of 1 M ethanolamine after coupling. According to the manufacturer's instructions, the binding and dissociation between the antigen on the chip surface and antibodies in the mobile phase were determined by Biacore (GE Healthcare, T200) to obtain affinity and kinetic constants. The antibodies (0-100 nM) after gradient dilution flowed over the chip surface in an order from low to high concentrations, with the binding time of 180 s and the dissociation time of 600 s. Finally, the chip was regenerated using 10 mM Glycine pH 1.5 (GE Healthcare, BR-1003-54). Kinetic analysis of the data results were performed using Biacore T200 analysis software with a 1:1 binding model.

[8] = molecular target: T3, human CLDN18.2 on cells (CHO-hCLDN18.2, …); assay: flow cytometry (FACS) on KATO III-hCLDN18.2 cells, MFI against Log[Conc(nM)]; EC50 from the table under the plot
Method: as §2

[9] = molecular target: T3, human CLDN18.2 on cells (CHO-hCLDN18.2, …); assay: flow cytometry (FACS) on the gastric cancer cell line NUGC-4, MFI against Log[Conc(nM)]; EC50 from the table under the plot
Method: as §2

- binding result [1]: no binding
- Kd [2]: 1.03 nM
- EC50 [3]: 5.88 nM
B1: 38F8 (antibody, human IgG1, kappa, V domains shown)
VH: EVQLVESGGGLVKPGGSLKLSCAASGFSFSDYGMHWVRQAPEKGLEWIAYINSGSRTLYYADTVKGRFTISRDNAKNTLFLQMTSLRSEETAMYYCTRNAYYGNAMDYWGQGTSVTVSS
VL: DIQMTQSPSSLTVTAGEKVTMSCKSSQSLLNSGNQRNYLTWYQQIPGQPPKLLIYWSSTRGSGVPDRFTGSGSGTDFTLTISSVQAEDLAVYFCQNVYYYPFTFGSGTRLEVKR

- binding result [1]: no binding
- Kd [2]: 1.46 nM
- EC50 [4]: 13.6 nM
B2: 25C7 (antibody, human IgG1, kappa, V domains shown)
VH: EVMLVESGGGLVQPGGSRKLSCAASGFTFSDYGMAWVRQAPGKGPEWVAFINNLAYSIYYVDTVTGRFTISRENAKDTLYLEMSSLRSEDTALYYCARFTTGNVMDYWGQGTSVTVSS
VL: DIVMTQSPSSLTVTAGEKVTMTCKSSQSLLNGGNQKNYLTWYQQKPGQPPKLLIYWSSTRESGVPDRFTGSGSGTDFTLTITSVQAEDLAVYYCQNSYSYPLTFGSGTKLELKR

- binding result [1]: no binding
- Kd [2]: 1.9 nM
- EC50 [4]: 7.51 nM
B3: 51H10 (antibody, human IgG1, kappa, V domains shown)
VH: EVQLQQSVPELVKPGASVRMSCKASGYTFTKYIIQWVKQKPGQGLEWIAYINPYNDDTKYNEKFKGKATLTSDKSASTAYMELSSLTSEDSAVYYCATTYYGNSFPNWGQGTLVTVSA
VL: DIVMTQSPSSLTVTAGERVTMTCKSSQSLLNSGNQKNYLTWYQQKPGQPPKLLIYWASTRESGVPDRFTGSGSGTDFTLTISSLQSEDLAVYFCQNDYSFPFTFGSGTKLEIKR

- binding result [1]: no binding
- Kd [2]: 2.8 nM
- EC50 [4]: 9.75 nM
B4: 3G3 (antibody, human IgG1, kappa, V domains shown)
VH: QVQLQQSGPQLVRPGASVKISCKASGYSFTTYWMHWVKQRPGQGLEWIGLIDPSDSETRLNQKFKDKATLTVDKSSSTAYMRLSSPTSEDSAVYYCASNRWLLGWGQGTLVTVSS
VL: B2 VL with V3Q, T5I, T22S, G32S, S57A, T82S, A86T, S97D, S106A, L112I

- EC50 [5]: 3.12 nM
- Kd [2]: 2.14 nM
- EC50 [4]: 3.46 nM
- EC50 [3]: 3.31 nM
B5: Positive control antibody Zmab (zolbetuximab) (antibody, human IgG1, kappa, V domains shown)
VH: QVQLQQPGAELVRPGASVKLSCKASGYTFTSYWINWVKQRPGQGLEWIGNIYPSDSYTNYNQKFKDKATLTVDKSSSTAYMQLSSPTSEDSAVYYCTRSWRGNSFDYWGQGTTLTVSS
VL: B3 VL with R18K, T22S, L84V, S86A, F93Y, F100Y

- EC50 [5]: 5.41 nM
- binding result [1]: no binding
- Kd [2]: 0.732 nM
B6: 46F6 (antibody, human IgG1, kappa, V domains shown)
VH: QVQLKESGPGLVAPSQSLSITCTVSGFSLTDYGVSWIRQPPGKGLEWLGVMWGGGNTYYNSALKSRLSISKDNSKSQVFLKMNSLQSDDTAMYYCAKQRYGGNAMDYWGQGTSVTVSS
VL: DIQMTQSPSSLTVTAGEKVTMSCKSSQSLLNSGNQRNYLTWYQQIPGQPPKLLIYWASTRESGVPNRFTGSGSGAEFTLTISSVQTEDLAVYYCQNSYFYPFTFGAGTKLELKR

- binding result [1]: no binding
- Kd [2]: 1.01 nM
- EC50 [4]: 5.7 nM
B7: 59C1 (antibody, human IgG1, kappa, V domains shown)
VH: QVQLKESGPDLVKPSQSLSLTCTVTGYSITSGYGWNWIRQFPGNKLEWMGYIHFSGSTNYNPSLKSRISITRDTSKNQFFLQLNSVTTEDTATYYCARSGKGNAMDYWGQGTSVTVSS
VL: DIQMTQSPSSLTVTAGEKVTMSCKSSQSLLNSGNQKNYLTWYQQKPGQPPKLLIYWASTRESGVPDRFTGSGSGTDFTLTVINMQAEDLALYYCQNDYYFPFTFGSGTKLEIKR

- binding result [1]: no binding
- Kd [2]: 0.529 nM
- EC50 [4]: 5.49 nM
B8: 14A5 (antibody, human IgG1, kappa, V domains shown)
VH: QVQLKESGPGLVAPSQSLSITCSVSGFSLNSYGVGWVRQPPGKGLEWLGVIWGDGSTNYHSVLISRLSIRKDNSKSQVFLKLNSLQTDDTATYYCAMITRGNAMDYWGQGTSVTVSS
VL: DIVMTQSPSSLTVTAGEKITMSCKSSQSLLNSGNQRNYLTWYQQKPGQTPKLLIYWASTRKSGVPDRFTGSGSGTDFTLTISSVQAEDLAVYSCQNNYLFPLTFGAGTKLELKR

- EC50 [5]: 5.36 nM
- binding result [1]: no binding
- Kd [2]: 0.946 nM
B9: 69H9 (antibody, human IgG1, kappa, V domains shown)
VH: EVQLQQSGPELMKPGASVKISCKATGYSFSSYNIHWVKQSHGKSLEWIGYIAPFNGDSRYNQKFKGKATVTVDKSSSTAYMHLSSLTSEDSAVYYCGRLNRGNSLDYWGQGTSLTVSS
VL: B8 VL with I19V, L30F, T49P, K61E, V91F, S93Y, L99I, F100Y

- binding result [1]: no binding
- Kd [2]: 0.326 nM
- EC50 [6]: 0.958 nM
- Kd [7]: 0.72 nM
- koff [7]: 0.000306 s⁻¹
- kon [7]: 425000 M⁻¹ s⁻¹
- EC50 [3]: 5.51 nM
- EC50 [8]: 0.569 nM
- EC50 [9]: 1.08 nM
B10: HB37A6 (fully human antibody) (antibody, human IgG1, kappa, V domains shown)
VH: EVQLLDSGGGLVQPGGSLRLSCAASGFTFSSYVMSWVRQAPGKGLNWVSTISHSGGSTYYADSVKGRFTISRDNSKNTLYLQMNSLRAEDTAVYYCAIDAPYYDILTGYRYWGQGTLVTVSS
VL: not shown

- EC50 [6]: 1.79 nM
- Kd [7]: 0.299 nM
- koff [7]: 0.000116 s⁻¹
- kon [7]: 387000 M⁻¹ s⁻¹
- EC50 [8]: 3.25 nM
- EC50 [9]: 2.2 nM
B11: Hz69H9 (antibody, human IgG1, kappa, V domains shown)
VH: QVQLVQSGAEVKKPGSSVKVSCKASGYSFSSYNIHWVRQAPGQGLEWMGYIAPFQGDSRYNQKFKGRVTITADKSTSTAYMELSSLRSEDTAVYYCARLNRGNSLDYWGQGTLVTVSS
VL: DIVMTQSPDSLAVSLGERATINCKSSQSLFNSGNQRNYLTWYQQKPGQPPKLLIYWASTRESGVPDRFSGSGSGTDFTLTISSLQAEDVAVYYCQNNYIYPLTFGGGTKVEIKR

Reference: patent US20230235047A1 (Innovent, published 2023)
